Source: the supplement of paper PMC10567573

Assay: protein stability index of a GFP-peptide fusion (GPS, HEK-293T) (PSI 1-6); higher = more stable
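Further: lentivirally expressed fusions sorted by FACS into six bins by GFP to DsRed ratio, PSI derived from sequencing read proportions per bin multiplied by bin number.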

Work on VSHVFMLLFNVKSPTDIQDSSIIR yielded a protein stability index (parent: IOH25836_47, c terminus: a fixed tail appended) of 2.27.

Protein FHKDCASRVNNASYCPHCGEESSK has a protein stability index (parent: IOH26527_103, c terminus: a fixed tail appended) of 3.47.

Protein HVGELIIWDALDWTMQAYERNFWD has a protein stability index (parent: IOH25728_41, c terminus: a fixed tail appended) of 2.32.

In the case of GGADIIVIKYNVNDKFSFHEVKDN, the protein stability index (parent: IOH25836_16, c terminus: a fixed tail appended) is reported as 2.19.

YHEAPMTRKHYQVTGYGINGTGDS gave a protein stability index (parent: IOH22744_72, c terminus: a fixed tail appended) of 2.29.

YSSSKGSLRLCDMRAAALCDKHSK [PPP2R2C WT] showed a protein stability index (parent: IOH22415_38, c terminus: a fixed tail appended) of 1.74.

Work on VRSRLEEAGIKVHDVRLNGSAAGH yielded a protein stability index (parent: IOH22484_10, c terminus: a fixed tail appended) of 2.22.

With LARKGSLKNGSMGSPVNQQPKKNN [C9orf25 WT] the protein stability index (parent: IOH25834_6, c terminus: a fixed tail appended) was 4.65.

In the case of GEGTGSPPKWQIGEQEFEALMRML, the protein stability index (parent: IOH25868_61, c terminus: a fixed tail appended) is reported as 3.11.

EMVRFLLEAGADQEHKTDEMHTAL gave a protein stability index (parent: IOH26350_70, c terminus: a fixed tail appended) of 2.65.

In the case of VTEDLRLKDWEHSIALRNISLAKG [SCARA5 WT], the protein stability index (parent: IOH23227_48, c terminus: a fixed tail appended) is reported as 3.31.

For STTEGIQLAKELGATYLELHSLDD, the protein stability index (parent: IOH25836_27, c terminus: a fixed tail appended) was 3.48.

FTSSPSPFSSSSPENVEDSGLDSP showed a protein stability index (parent: IOH26137_77, c terminus: a fixed tail appended) of 1.88.

Protein FGGTGIPFGESNGNGVHVCNVKYK has a protein stability index (parent: IOH26494_29, c terminus: a fixed tail appended) of 2.05.

For EVLRRLTSSVSCALDEAAAALTRM, the protein stability index (parent: IOH26350_34, c terminus: a fixed tail appended) was 1.95.

In the case of LLARLRELEQQIWKERDEYITKVS, the protein stability index (parent: IOH26053_32, c terminus: a fixed tail appended) is reported as 1.67.

Work on KTSLLDQLTNTSGTVIGVTSCIVI yielded a protein stability index (parent: IOH26431_56, c terminus: a fixed tail appended) of 3.09.

Protein WTMQAYERNFWDPSPQLDTQQEIK has a protein stability index (parent: IOH25728_43, c terminus: a fixed tail appended) of 2.62.

FDHLQNRLIATKNPEEIRGGGLLK showed a protein stability index (parent: IOH22484_38, c terminus: a fixed tail appended) of 3.8.

For FASDGDSGTCSPLRHSFQKQQREK, the protein stability index (parent: IOH25868_71, c terminus: a fixed tail appended) was 3.71.

QSSGKILLCPLCQEEEQAETPMAP showed a protein stability index (parent: IOH26053_9, c terminus: a fixed tail appended) of 3.3.

With DSCCPAGIFQAMCLLICAEMYQVS the protein stability index (parent: IOH25836_81, c terminus: a fixed tail appended) was 3.09.

Protein NQEITKAFHVRRTNRVKECLAKGT has a protein stability index (parent: IOH23244_80, c terminus: a fixed tail appended) of 3.11.

Protein GFSPIIGRFCGQQNPPVIKSSGRF has a protein stability index (parent: IOH26431_19, c terminus: a fixed tail appended) of 2.17.

With DWRKNIEEKSGMEGRKKMFESES [TNNI2 WT] the protein stability index (parent: IOH23107_29, c terminus: native) was 2.45.

PSLLELAWEKLLAAFPNLANLSRT gave a protein stability index (parent: IOH26494_68, c terminus: a fixed tail appended) of 2.3.

SFMPLVIKVTSATSVNLGILTADL showed a protein stability index (parent: IOH25755_47, c terminus: a fixed tail appended) of 2.79.

KVVEAHKIVLCAVSHVFMLLFNVK gave a protein stability index (parent: IOH25836_45, c terminus: a fixed tail appended) of 2.49.

With AQVLMLGQILELPWKEETFLVLQS [FANCE WT] the protein stability index (parent: IOH26415_73, c terminus: a fixed tail appended) was 2.44.

PSRVHASEVESAVWYVKKFGRYLE gave a protein stability index (parent: IOH22759_12, c terminus: a fixed tail appended) of 2.26.

FVAFALCMFCLYSFMPLVIKVTSA showed a protein stability index (parent: IOH25755_45, c terminus: a fixed tail appended) of 2.87.

VKYNSCADRPFSAPWWFWLSLTGV gave a protein stability index (parent: IOH22744_36, c terminus: a fixed tail appended) of 2.7.

Work on SSKEEQKLIATSNKPAVKLLYNRS [KCTD10 WT] yielded a protein stability index (parent: IOH25947_25, c terminus: a fixed tail appended) of 4.05.

Protein RVFKARIYTNRYETNEEDKTLQEI has a protein stability index (parent: IOH22759_67, c terminus: a fixed tail appended) of 2.51.

CPIIRIPNRFLRGHRPPPARSGHR gave a protein stability index (parent: IOH26494_13, c terminus: a fixed tail appended) of 1.87.

For PLMGETQERERVLTHFSRRYCQCN, the protein stability index (parent: IOH26041_63, c terminus: a fixed tail appended) was 3.06.

FSDPSQSDPETKDFWLNMAALTEA showed a protein stability index (parent: IOH26137_117, c terminus: a fixed tail appended) of 2.84.

LYTGELDENERDLMHIAHIAELLE gave a protein stability index (parent: IOH23244_73, c terminus: a fixed tail appended) of 2.54.

In the case of HHHHGRDFLLRAASFDVCESVDEA, the protein stability index (parent: IOH23244_56, c terminus: a fixed tail appended) is reported as 3.72.

With PDVENEVKRLLRSDAEAVSTRWEV [TAF7L WT] the protein stability index (parent: IOH26414_44, c terminus: a fixed tail appended) was 3.49.

KKLKIFAMPMQDIKMILKMVQLDS [PRAME WT] gave a protein stability index (parent: IOH26126_36, c terminus: a fixed tail appended) of 2.56.

Work on LRHSFQKQQREKTRWLNSGRGDEA yielded a protein stability index (parent: IOH25868_73, c terminus: a fixed tail appended) of 3.66.

Protein LTHFSRRYCQCNPDDSTSEDGIHT has a protein stability index (parent: IOH26041_65, c terminus: a fixed tail appended) of 3.23.

Work on SARQGELQKVLLMLVDGIDPNFKM yielded a protein stability index (parent: IOH26527_125, c terminus: a fixed tail appended) of 1.73.

In the case of DKLALCHLELTRKLQDLIKDVLRY, the protein stability index (parent: IOH26137_14, c terminus: a fixed tail appended) is reported as 2.73.

Protein HLELTRKLQDLIKDVLRYGEEQLK has a protein stability index (parent: IOH26137_15, c terminus: a fixed tail appended) of 2.46.

LRGGGQVLLGWTLHYFPFFLMGRV gave a protein stability index (parent: IOH22744_107, c terminus: a fixed tail appended) of 2.33.

LSQMGAQSSGKILLCPLCQEEEQA showed a protein stability index (parent: IOH26053_8, c terminus: a fixed tail appended) of 3.51.

KSAAMLAVFAVSAVVHEYALAVCL [SOAT1 WT] gave a protein stability index (parent: IOH22371_75, c terminus: a fixed tail appended) of 3.11.

With VLRSRIRFIHLVTGCVLGSSGKVL the protein stability index (parent: IOH22744_79, c terminus: a fixed tail appended) was 2.76.

QLQSMPSRELASMNLDIVDLLKKA showed a protein stability index (parent: IOH25836_87, c terminus: a fixed tail appended) of 3.28.

EEINKNISDFGRQQLLPPFPSLHQ gave a protein stability index (parent: IOH26527_40, c terminus: a fixed tail appended) of 2.94.

QYLAERYKVNTPMLQSFINYCLLF gave a protein stability index (parent: IOH25755_11, c terminus: a fixed tail appended) of 2.35.
